From patent publication US20210380649A1 (BIO TECHNE, published 2021)
Each block holds one binder with its values, some of them ahead of it.

Legend:
[1] = molecular target: T1, recombinant mouse (rm) Wnt3a biotinylated protein (mouse, UniProt P27467 19-352, biotinylated (sites not given)); experiment: ELISA: in-solution binding with biotinylated mouse Wnt3a (100 ng/mL), capture on streptavidin plate, detection with mouse anti-HA antibody, FIG. 8
T1 construct: also called biotinylated mouse Wnt3a protein
Method: (§1) Purified recombinant mouse sFRP proteins were tested in ELISA binding assays with a biotinylated mouse Wnt3a protein. […] His tagged-mouse sFRP2 and His tagged-mouse sFRP3 were detected with a mouse anti-His antibody. HA tagged-mouse sFRP5 was detected with a mouse anti-HA antibody.
(§2) A 96-well tissue culture plate was blocked with 1% BSA in PBS and used as an in-solution binding plate. 120 μL of total volume containing 100 ng/mL recombinant mouse (rm) Wnt3a biotinylated protein and sFRPs (1:3 serial dilution) were incubated overnight at 4° C. in the binding plate. Then 100 μL of binding solution was transferred to streptavidin coated 96-well ELISA plate, incubating overnight at 4° C. followed by the HRP detection. The mouse sFRP1 was detected with a goat anti-mouse sFRP1 antibody, mouse sFRP2 and mouse sFRP3 were His-tagged and were detected with a mouse anti-His antibody, mouse sFRP4 was detected with a sheep anti-mouse sFRP4 antibody, and the HA-tagged mouse sFRP5 was detected with a mouse […]. […] secondary antibodies were used to detect the primary antibodies followed by colorimetric readouts.

[2] = molecular target: T1, recombinant mouse (rm) Wnt3a …; experiment: ELISA: in-solution binding with biotinylated mouse Wnt3a (100 ng/mL), capture on streptavidin plate, detection with mouse anti-His antibody, FIG. 8
Method: as §1, §2

mouse Wnt1 [3] = molecular target: T2, mouse Wnt1 (mouse, UniProt P04426 28-370); experiment: SDS-PAGE with Coomassie Blue of the gel-filtration purified complex, densitometry, FIG. 4F
T2 construct: In the co-IP and chromatography it is the protein found in CHO conditioned media; also called mWnt1; mWnt-1
T2 sequence (looked up): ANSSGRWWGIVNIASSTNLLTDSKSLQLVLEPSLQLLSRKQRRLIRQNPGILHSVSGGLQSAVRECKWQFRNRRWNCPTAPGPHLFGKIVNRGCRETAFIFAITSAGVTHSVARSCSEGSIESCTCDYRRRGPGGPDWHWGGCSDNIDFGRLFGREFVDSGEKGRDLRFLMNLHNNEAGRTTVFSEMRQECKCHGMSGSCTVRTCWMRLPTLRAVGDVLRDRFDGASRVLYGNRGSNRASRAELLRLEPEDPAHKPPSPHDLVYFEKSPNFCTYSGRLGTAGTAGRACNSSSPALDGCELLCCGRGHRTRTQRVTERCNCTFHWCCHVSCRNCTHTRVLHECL
Description: FIG. 4A. Conditioned media from CHO cells co-expressing msFRP1 and mWnt-1 were loaded onto SP Sepharose column, and bound proteins were eluted with a linear gradient of high salt buffer. The distinct late elution peak was the position that sFRP was usually eluted. FIG. 4B. Fractions collected from SP elution were loaded onto 15 percent (%) SDS-PAGE and stained with silver. The 37 kDa bands represent sFRP1. FIG. 4C. The same fractions of FIG. 4B were subjected to Western blot probed with antibody against mWnt-1. mWnt-1 was detected as a ˜52 kDa band that is present in the same fractions where sFRP1 was detected. FIG. 4D. Pool from a SP Sepharose column was loaded and eluted from a gel filtration (Superdex 200) column. The earlier-eluted peak contained the sFRP1/Wnt-1 complex, while the later-eluted peak contained the free sFRP. FIG. 4E. Fractions collected from gel filtration elution were loaded onto a 15% SDS-PAGE gel and stained with Coomassie blue. The lower band (37 kDa) represents sFRP1 and the upper band (52 kDa) represents Wnt-1. FIG. 4F. sFRP1/Wnt-1 complex purified from a gel filtration column was loaded onto a 15% SDS-PAGE gel and stained with Coomassie blue. Two bands, at 37 kDa and 52 kDa, were observed, with a roughly 1:1 molar ratio.

mouse Wnt1 [4] = molecular target: T2, mouse Wnt1; experiment: cell-based or functional assay
[5] = molecular target: T1, recombinant mouse (rm) Wnt3a …; experiment: ELISA: in-solution binding with biotinylated mouse Wnt3a (100 ng/mL), capture on streptavidin plate, detection with goat anti-sFRP1 antibody, FIG. 8
Method: as §1, §2

T1 sequence (P27467 19-352 limits assumed): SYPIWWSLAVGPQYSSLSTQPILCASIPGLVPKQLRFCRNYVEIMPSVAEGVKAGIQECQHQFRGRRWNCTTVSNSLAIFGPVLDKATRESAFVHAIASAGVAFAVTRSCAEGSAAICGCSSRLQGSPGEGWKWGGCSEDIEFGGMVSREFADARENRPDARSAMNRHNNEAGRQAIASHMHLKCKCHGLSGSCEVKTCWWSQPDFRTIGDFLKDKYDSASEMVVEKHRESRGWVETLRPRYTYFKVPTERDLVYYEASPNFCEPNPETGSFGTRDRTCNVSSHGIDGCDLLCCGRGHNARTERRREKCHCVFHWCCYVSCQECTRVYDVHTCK

binding result [1]: binds
B1: HA tagged-mouse sFRP5 (other, UniProt Q9WU66 22-314, looked up)
chain: APTRGQEYDYYGWQAEPLHGRSYSKPPQCLDIPADLPLCHTVGYKRMRLPNLLEHESLAEVKQQASSWLPLLAKRCHSDTQVFLCSLFAPVCLDRPIYPCRSLCEAARAGCAPLMEAYGFPWPEMLHCHKFPLDNDLCIAVQFGHLPATAPPVTKICAQCEMEHSADGLMEQMCSSDFVVKMRIKEIKIDNGDRKLIGAQKKKKLLKAGPLKRKDTKKLVLHMKNGASCPCPQLDNLTGSFLVMGRKVEGQLLLTAVYRWDKKNKEMKFAVKFMFSYPCSLYYPFFYGAAEPH
notes: not shown: HA tag

binding result [2]: binds
B2: His tagged-mouse sFRP2 (other, UniProt P97299 25-295, looked up)
chain: LFLFGQPDFSYKRSNCKPIPANLQLCHGIEYQNMRLPNLLGHETMKEVLEQAGAWIPLVMKQCHPDTKKFLCSLFAPVCLDDLDETIQPCHSLCVQVKDRCAPVMSAFGFPWPDMLECDRFPQDNDLCIPLASSDHLLPATEEAPKVCEACKTKNEDDNDIMETLCKNDFALKIKVKEITYINRDTKIILETKSKTIYKLNGVSERDLKKSVLWLKDSLQCTCEEMNDINAPYLVMGQKQGGELVITSVKRWQKGQREFKRISRSIRKLQC
notes: also called msFRP2; not shown: His tag

molar ratio of the two bands in the purified complex (mouse Wnt1 [3]): ~1 molar ratio (sFRP1:Wnt-1)
fold induction above background, HEK293 TCF9-SEAP hFz4/hLRP5 Wnt Reporter assay, conditioned media of CHO cells co-expressing mWnt1 and msFRP1 (mouse Wnt1 [4]): 22 fold
binding result [5]: binds
B3: mouse sFRP1 (other, UniProt Q8C4U3 32-314, looked up)
chain: SEYDYVSFQSDIGSYQSGRFYTKPPQCVDIPVDLRLCHNVGYKKMVLPNLLEHETMAEVKQQASSWVPLLNKNCHMGTQVFLCSLFAPVCLDRPIYPCRWLCEAVRDSCEPVMQFFGFYWPEMLKCDKFPEGDVCIAMTPPNTTEASKPQGTTVCPPCDNELKSEAIIEHLCASEFALRMKIKEVKKENGDKKIVPKKKKPLKLGPIKKKELKRLVLFLKNGADCPCHQLDNLSHNFLIMGRKVKSQYLLTAIHKWDKKNKEFKNFMKRMKNHECPTFQSVFK
notes: Secreted protein; also called msFRP1; msFRP-1

fold induction above background, HEK293 TCF9-SEAP hFz4/hLRP5 Wnt Reporter assay, conditioned media of CHO cells co-expressing mWnt1 and msFRP1-His (mouse Wnt1 [4]): 17 fold
B4: mouse sFRP1-His (other, UniProt Q8C4U3 32-314, looked up, not shown: small tags and cut ends)
chain: SEYDYVSFQSDIGSYQSGRFYTKPPQCVDIPVDLRLCHNVGYKKMVLPNLLEHETMAEVKQQASSWVPLLNKNCHMGTQVFLCSLFAPVCLDRPIYPCRWLCEAVRDSCEPVMQFFGFYWPEMLKCDKFPEGDVCIAMTPPNTTEASKPQGTTVCPPCDNELKSEAIIEHLCASEFALRMKIKEVKKENGDKKIVPKKKKPLKLGPIKKKELKRLVLFLKNGADCPCHQLDNLSHNFLIMGRKVKSQYLLTAIHKWDKKNKEFKNFMKRMKNHECPTFQSVFK
